B1: LRRC45 (parent)
chain: DLSAANEKNLLLQNQVDELERKFR
B2: RHOBTB2 (parent)
chain: LYTGELDENERDLMHIAHIAELLE

Variants of: B1
Assay: protein stability index of a GFP-peptide fusion (GPS, HEK-293T) (PSI 1-6); higher = more stable
Conditions: c terminus: a fixed tail appended
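Note: lentivirally expressed fusions sorted by FACS into six bins by GFP to DsRed ratio, PSI derived from sequencing read proportions per bin multiplied by bin number.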

In order of falling protein stability index:
1. DLSAANEKNLLLQNQVDELERKPR [F23P]  4.77
2. DLSAANEKNLLLQNQVDEAERKFR [L19A]  4.58
3. DLSAANEKNLLLQNQVDELERKFG [R24G]  4.48
4. DLSAANEKNLILQNQVDELERKFR [L11I]  4.46
5. DLSAANEKNLLLQNQVDELERKSR [F23S]  4.36
6. DLSAANEKNLLLQNQSDELERKFR [V16S]  4.32
7. DLSAANEKNLLCQNQVDELERKFR [L12C]  4.31
8. DLSAHNEKNLLLQNQVDELERKFR [A5H]  4.16
9. DLSAANEKNLLFQNQVDELERKFR [L12F]  4.09
10. DLSAANEKNLLLQNQVDELARKFR [E20A]  3.96
11. DLSAANEKGLLLQNQVDELERKFR [N9G]  3.93
12. DLSAANEFNLLLQNQVDELERKFR [K8F]  3.85
13. DLSAANEKNLLLQNMVDELERKFR [Q15M]  3.77
14. CLSAANEKNLLLQNQVDELERKFR [D1C]  3.73
15. DLSAANKKNLLLQNQVDELERKFR [E7K]  3.7
16. DLSAANEKNLLLQPQVDELERKFR [N14P]  3.69
17. DLSARNEKNLLLQNQVDELERKFR [A5R]  3.67
18. DLSAANEKNLLLQNQVDGLERKFR [E18G]  3.67
19. DLSAANEKNLLTQNQVDELERKFR [L12T]  3.64
20. DLSAANQKNLLLQNQVDELERKFR [E7Q]  3.63
21. DLSAANEKNLLLQNQVDELERKFF [R24F]  3.62
22. DLSAANEKNILLQNQVDELERKFR [L10I]  3.58
23. DLSAANEKNLLLQNQVDEYERKFR [L19Y]  3.48
24. DLSAANEKNLLLQNQVDELQRKFR [E20Q]  3.47
25. DLSAANEKNLLLQNIVDELERKFR [Q15I]  3.38
26. DLSAANEKNLLLQNWVDELERKFR [Q15W]  3.27
27. DLSAANIKNLLLQNQVDELERKFR [E7I]  3.2
28. DLSAANNKNLLLQNQVDELERKFR [E7N]  3.01

Variants of: B2
Assay: as above
Conditions: c terminus: a fixed tail appended

In order of rising protein stability index:
1. LYTGELHENERDLMHIAHIAELLE [D7H]  1.62
2. LYTGELDINERDLMHIAHIAELLE [E8I]  1.62
3. LYTGELWENERDLMHIAHIAELLE [D7W]  1.64
4. LYTGELIENERDLMHIAHIAELLE [D7I]  1.77
5. LYTGELCENERDLMHIAHIAELLE [D7C]  1.88
6. LYTGELYENERDLMHIAHIAELLE [D7Y]  1.89
7. LYTGELDGNERDLMHIAHIAELLE [E8G]  1.91
8. LYTGELQENERDLMHIAHIAELLE [D7Q]  1.94
9. LYTGELMENERDLMHIAHIAELLE [D7M]  1.97
10. IYTGELDENERDLMHIAHIAELLE [L1I]  2
11. LYTGELDANERDLMHIAHIAELLE [E8A]  2.08
12. TYTGELDENERDLMHIAHIAELLE [L1T]  2.1
13. LYTGELGENERDLMHIAHIAELLE [D7G]  2.15
14. LYTGELTENERDLMHIAHIAELLE [D7T]  2.16
15. LYTGELNENERDLMHIAHIAELLE [D7N]  2.17
16. LYTGELDNNERDLMHIAHIAELLE [E8N]  2.21
17. LYTGELDYNERDLMHIAHIAELLE [E8Y]  2.23
18. LYTGELRENERDLMHIAHIAELLE [D7R]  2.25
19. LYTGELFENERDLMHIAHIAELLE [D7F]  2.3
20. LYTGELKENERDLMHIAHIAELLE [D7K]  2.33
21. LYTGEVDENERDLMHIAHIAELLE [L6V]  2.38
22. LYTGELDHNERDLMHIAHIAELLE [E8H]  2.39
23. LYTGELEENERDLMHIAHIAELLE [D7E]  2.41
24. WYTGELDENERDLMHIAHIAELLE [L1W]  2.43
25. LYTGEWDENERDLMHIAHIAELLE [L6W]  2.44
26. LYTGELVENERDLMHIAHIAELLE [D7V]  2.46
27. LYTGEFDENERDLMHIAHIAELLE [L6F]  2.46
28. LYTGELAENERDLMHIAHIAELLE [D7A]  2.48
29. LYTGELSENERDLMHIAHIAELLE [D7S]  2.48
30. KYTGELDENERDLMHIAHIAELLE [L1K]  2.49
31. SYTGELDENERDLMHIAHIAELLE [L1S]  2.52
32. LYTGELPENERDLMHIAHIAELLE [D7P]  2.52
33. GYTGELDENERDLMHIAHIAELLE [L1G]  2.53
34. LYTGEMDENERDLMHIAHIAELLE [L6M]  2.56
35. LYTGEYDENERDLMHIAHIAELLE [L6Y]  2.6
36. HYTGELDENERDLMHIAHIAELLE [L1H]  2.61
37. AYTGELDENERDLMHIAHIAELLE [L1A]  2.62
38. LYTGEIDENERDLMHIAHIAELLE [L6I]  2.64
39. CYTGELDENERDLMHIAHIAELLE [L1C]  2.67
40. EYTGELDENERDLMHIAHIAELLE [L1E]  2.72
41. MYTGELDENERDLMHIAHIAELLE [L1M]  2.72
42. YYTGELDENERDLMHIAHIAELLE [L1Y]  2.78
43. LYTGERDENERDLMHIAHIAELLE [L6R]  2.79
44. NYTGELDENERDLMHIAHIAELLE [L1N]  2.8
45. VYTGELDENERDLMHIAHIAELLE [L1V]  2.8
46. LYTGESDENERDLMHIAHIAELLE [L6S]  2.81
47. LYTGELDWNERDLMHIAHIAELLE [E8W]  2.88
48. LYTGELDVNERDLMHIAHIAELLE [E8V]  2.9
49. LYTGECDENERDLMHIAHIAELLE [L6C]  2.91
50. PYTGELDENERDLMHIAHIAELLE [L1P]  2.92
51. RYTGELDENERDLMHIAHIAELLE [L1R]  2.93
52. LYTGEPDENERDLMHIAHIAELLE [L6P]  2.95
53. LYTGEHDENERDLMHIAHIAELLE [L6H]  2.96
54. FYTGELDENERDLMHIAHIAELLE [L1F]  3.02
55. DYTGELDENERDLMHIAHIAELLE [L1D]  3.08
56. QYTGELDENERDLMHIAHIAELLE [L1Q]  3.08
57. LYTGEGDENERDLMHIAHIAELLE [L6G]  3.11
58. LYTGELDDNERDLMHIAHIAELLE [E8D]  3.23
59. LYTGEDDENERDLMHIAHIAELLE [L6D]  3.27
60. LYTGELLENERDLMHIAHIAELLE [D7L]  3.31
61. LYTGEKDENERDLMHIAHIAELLE [L6K]  3.31
62. LYTGEADENERDLMHIAHIAELLE [L6A]  3.38
63. LYTGEEDENERDLMHIAHIAELLE [L6E]  3.4
64. LYTGENDENERDLMHIAHIAELLE [L6N]  3.49
65. LYTGETDENERDLMHIAHIAELLE [L6T]  3.57
66. LYTGEQDENERDLMHIAHIAELLE [L6Q]  3.86
